Article PMC4007762

Tests used:
Settings in all cases: reference: wild-type YFP-p120-1A; sites Y335
E-cadherin = E-cadherin (UniProt P12830); assay: anti-YFP immunoprecipitation, E-cadherin blot
cortactin = cortactin (UniProt Q14247); assay: anti-YFP immunoprecipitation, cortactin blot
VAV2 (endogenous) = VAV2 (endogenous) (UniProt P52735); assay: anti-YFP immunoprecipitation, VAV2 blot

binding against the reference (E-cadherin): stronger
binding against the reference (cortactin): weaker
binding against the reference (VAV2 (endogenous)): weaker
Substance: p120-1A (transfected YFP- or HA-tagged) (from UniProt P30999) Y335F
